Results on one molecule are retold here after US20160046678A1 (ZYNGENIA, published 2016).

Ends that are not written are not given here. A value given as a limit tells only on which side of the number the result lay.

The target of this experiment is T1, Angiopoietin-2 (Ang2) (human, UniProt O15123 19-496, biotin label in Examples 22-24).
T1 construct: also called rhAng2; recombinant Ang2
T1 sequence (looked up): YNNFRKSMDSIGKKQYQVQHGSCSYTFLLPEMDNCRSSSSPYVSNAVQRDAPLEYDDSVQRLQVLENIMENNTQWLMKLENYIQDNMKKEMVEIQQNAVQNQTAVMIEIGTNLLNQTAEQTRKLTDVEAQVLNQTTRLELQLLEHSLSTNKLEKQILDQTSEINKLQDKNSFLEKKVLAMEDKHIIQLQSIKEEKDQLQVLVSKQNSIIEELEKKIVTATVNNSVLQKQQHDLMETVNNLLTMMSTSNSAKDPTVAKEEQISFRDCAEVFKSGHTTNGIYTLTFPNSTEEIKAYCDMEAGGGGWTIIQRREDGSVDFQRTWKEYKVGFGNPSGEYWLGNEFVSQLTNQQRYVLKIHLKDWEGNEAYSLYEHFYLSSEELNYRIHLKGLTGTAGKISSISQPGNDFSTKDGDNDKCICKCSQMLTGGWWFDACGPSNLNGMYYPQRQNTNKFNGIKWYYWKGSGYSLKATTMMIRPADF
Briefly: ELISA, MRD-MBP fusions on rhAng2-coated wells; references L17D and Lm32 KtoS MBP fusions.

B1: 2xLm32 MRD-MBP fusion (other)
chain: MGAQTNFMPMDNDELLLYEQFILQQGLEGGSGSTASSGSGSSLGAQTNFMPMDNDELLLY
modifications: also: fused to maltose binding protein, MRD downstream of malE, two copies of Lm32
notes: also called Lm32 dimer; LM-2x-32; not shown: MRD inserted downstream of malE
With B1, the fold higher affinity is greater than 10 fold.
